Among the data in article PMC5956896 are decrease in binding compared to wild type ITK PHTH and disruption of the interaction by 5 μM IP(1,3,4,5)P4 values, retold here.

Assay in all cases: pull-down
The target of one experiment is ITK PHTH E56A.
Experiment [1] concerns the target His6-GB1 tagged ITK PHTH (C96E/T110I) domain.
The target of another experiment is ITK PHTH L51D.

A value given as a limit tells only on which side of the number the result lay.

With “His6 tagged mouse ITK kinase domain (residues 356-619) (domain or fragment)”, the decrease in binding compared to wild type ITK PHTH with ITK PHTH E56A and in the experiment with ITK PHTH L51D was 50% in each case. The disruption of the interaction by 5 μM IP(1,3,4,5)P4 in experiment [1] was greater than 50%.
